Source: US20030129189A1, “Tumor necrosis factor-gamma” (priority 1994, published 2003)

T1: non-tagged form of TR6 (UniProt O95407 30-300)
T1 construct: also called DcR3
T1 sequence (looked up): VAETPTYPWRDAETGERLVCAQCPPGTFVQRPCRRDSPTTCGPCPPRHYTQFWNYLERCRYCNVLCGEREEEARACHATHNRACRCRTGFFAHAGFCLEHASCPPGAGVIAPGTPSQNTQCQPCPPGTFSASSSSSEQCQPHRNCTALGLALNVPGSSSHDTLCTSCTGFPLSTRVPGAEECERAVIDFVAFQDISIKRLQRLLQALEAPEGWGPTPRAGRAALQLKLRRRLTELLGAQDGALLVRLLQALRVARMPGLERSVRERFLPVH

T2: Fc-fusion form of the extracellular domain of DR6 (UniProt O75509 42-349, limits assumed)
T2 construct: extracellular domain; not shown: Fc part of the fusion
T2 sequence (looked up): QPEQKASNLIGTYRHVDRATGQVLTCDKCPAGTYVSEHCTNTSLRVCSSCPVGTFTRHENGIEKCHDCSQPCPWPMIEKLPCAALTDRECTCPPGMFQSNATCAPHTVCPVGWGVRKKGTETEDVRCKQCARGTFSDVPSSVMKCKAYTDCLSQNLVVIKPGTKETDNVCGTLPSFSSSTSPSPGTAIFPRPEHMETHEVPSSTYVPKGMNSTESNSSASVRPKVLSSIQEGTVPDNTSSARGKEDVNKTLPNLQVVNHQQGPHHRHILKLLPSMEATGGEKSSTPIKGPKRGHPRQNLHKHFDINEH

T3: Fc-fusion form of the extracellular domain of OPG (UniProt O00300 22-401, limits assumed)
T3 construct: extracellular domain; not shown: Fc part of the fusion
T3 sequence (looked up): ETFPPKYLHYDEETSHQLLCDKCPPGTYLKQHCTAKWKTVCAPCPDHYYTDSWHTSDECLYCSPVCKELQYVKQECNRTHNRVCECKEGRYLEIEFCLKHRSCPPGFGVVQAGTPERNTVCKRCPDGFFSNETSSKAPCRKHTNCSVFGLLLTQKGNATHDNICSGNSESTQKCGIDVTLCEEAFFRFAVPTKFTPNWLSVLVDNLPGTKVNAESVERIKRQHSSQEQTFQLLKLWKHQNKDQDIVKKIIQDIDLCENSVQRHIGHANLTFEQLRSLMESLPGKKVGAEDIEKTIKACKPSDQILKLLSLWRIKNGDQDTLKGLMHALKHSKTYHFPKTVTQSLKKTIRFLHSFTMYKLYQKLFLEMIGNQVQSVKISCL

T4: FLAG-tagged soluble TNF-gamma-beta (aa 72-251) (human, UniProt O95150 72-251)
T4 construct: also called FLAG-TL1β; FLAG-TNF-gamma-beta; not shown: The N-terminal FLAG tag (pFLAG-CMV-1 vector) and any vector linker
T4 sequence: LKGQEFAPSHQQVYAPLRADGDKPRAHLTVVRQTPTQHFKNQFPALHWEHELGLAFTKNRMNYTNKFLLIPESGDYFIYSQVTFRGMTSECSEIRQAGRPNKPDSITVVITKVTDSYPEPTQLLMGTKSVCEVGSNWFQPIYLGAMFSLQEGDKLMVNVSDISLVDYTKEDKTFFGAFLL

T5: recombinant, untagged TNF-gamma-beta protein (aa 72-251) (human, UniProt O95150 72-251)
T5 construct: they are put here; also called TL1β; non-tagged TNF-gamma-beta
T5 sequence: T4 sequence

B1: full length TNF-gamma-beta on the cell surface (HEK293F stable transfectants; transfected cells) (ligand)
chain: MAEDLGLSFGETASVEMLPEHGSCRPKARSSSARWALTCCLVLLPFLAGLTTYLLVSQLRAQGEACVQFQALKGQEFAPSHQQVYAPLRADGDKPRAHLTVVRQTPTQHFKNQFPALHWEHELGLAFTKNRMNYTNKFLLIPESGDYFIYSQVTFRGMTSECSEIRQAGRPNKPDSITVVITKVTDSYPEPTQLLMGTKSVCEVGSNWFQPIYLGAMFSLQEGDKLMVNVSDISLVDYTKEDKTFFGAFLL
notes: also called TNF-gamma-beta expressing cells
B2: TACI-Fc (extracellular domain of human TACI, aa 1-159, fused to the Fc domain of human IgG1) (Fc fusion, UniProt O14836 1-159, looked up)
chain: MSGLGRSRRGGRSRVDQEERFPQGLWTGVAMRSCPEEQYWDPLLGTCMSCKTICNHQSQRTCAAFCRSLSCRKEQGKFYDHLLRDCISCASICGQHPKQCAYFCENKLRSPVNLPPELRRQRSGEVENNSDNSGRYQGLEHRGSEASPALPGLKLSADQ
notes: range 1-159; also called TAC1; not shown: Fc domain of human IgG1, fused in-frame to the C-terminus of the receptor part
B3: soluble DR3: extracellular domain of DR3 locally produced by transfected MCA 38 cells (protein, UniProt Q93038 25-199, looked up)
extracellular domain: QGGTRSPRCDCAGDFHKKIGLFCCRGCPAGHYLKAPCTEPCGNSTCLVCPQDTFLAWENHHNSECARCQACDEQASQVALENCSAVADTRCGCKPGWFVECQVSQCVSSSPFYCQPCLDCGALHRHTRLLCSRRDTDCGTCLPGFYEHGDGCVSCPTSTLGSCPERCAAVCGWRQ
modifications: extracellular domain
notes: extracellular domain of DR3 locally produced by transfected MCA 38 cells
B4: BCMA-Fc (Fc fusion, human, UniProt Q02223 1-54, looked up)
chain: MLQMAGQCSQNEYFDSLLHACIPCQLRCSSNTPPLTCQRYCNASVTNSVKGTNA
notes: Control surface of the BIAcore analysis; not shown: Fc part of the fusion; not described for this receptor

Key:
non-tagged form of TR6 = molecular target: T1, non-tagged form of TR6; assay: competition flow cytometry on HEK293F cells expressing TNF-gamma-beta; competitor of DR3-Fc
Procedure: (§1) TR6 has been previously described as a decoy receptor (Pitti et al., Nature 396:699-703 (1998); Yu et al., J. Biol. Chem. 274:13733-6 (1999)) capable of competing with Fas and HveA for binding of FasL and LIGHT, respectively.
(§2) One million cells, in 0.1 ml of FACS buffer (PBS, 0.1% BSA, 0.1% NaN₃), were incubated with 0.1-1 microgram of protein or antibody at RT for 15 min. The cells were washed with 3 ml of FACS buffer, reacted with biotinylated primary antibody, and stained with PE-conjugated secondary antibody at RT for 15 min. Cells were then washed again, resuspended in 0.5 microgram/ml of propidium iodide, and live cells were gated and analyzed on a FACScan using the CellQuest software (BD Biosciences).

[1] = molecular target: T2, Fc-fusion form of the extracellular …; assay: flow cytometry on HEK293F cells expressing full length TNF-gamma-beta
Procedure: as §1, §2

[2] = molecular target: T3, Fc-fusion form of the extracellular …; assay: as above
Procedure: as §1, §2

[3] = molecular target: B1; assay: as above
Procedure: as §1, §2

[4] = molecular target: T4, FLAG-tagged soluble TNF-gamma-beta (aa …); assay: co-immunoprecipitation with protein A-Sepharose, anti-Flag M2 blot
Source text: The beads were then precipitated and washed extensively with PBST buffer (PBS, 0.5% Triton X-100) before boiled in SDS-sample buffer. Proteins were resolved on 4-20% Tris-Glycine gels (NOVEX), transferred to nitrocellulose membranes, and blotted with anti-Flag M2 monoclonal antibody (1 microgram/ml, Sigma) andhorseradish peroxidase (HRP)-conjugated goat anti-mouse IgG antibody (0.5 microgram/ml).

[5] = test system: MC-38 murine colon cancer; assay: In vivo tumorigenicity assay, syngeneic MC-38 colon cancer; design: species or system C57BL6/6 mice; settings: local production by transfected MCA 38 cells, 1×10^6 cells/mouse
Procedure: [The full-length TNF-gamma and extracellular domain of DR3 was cloned into pcDNA3 expression vector and transfected to MCA 38 cells, respectively. After selection and cloning, three clones from each constructs were picked for tumorigenicity study. MCA 38 cells (1×10^6 cells/mouse) expressing TNF-gamma or DR3 extracellular domain were injected into C57BL6/6 mice. The tumor size was assessed by measuring perpendicular diameters with a caliper and calculated by multiplying the measurements of diameters in two dimensions. Data are represented as the mean +/−SD of 6 mice in each group.] It is clear that most immune cells and cancer cells can express more than one TNF receptor (even more than one death receptor) and ligand superfamily member. […] Moreover, the expression of these ligands and receptors may differ at the level of individual cell types within tissues and the expression level on the same cell type may also differ.
The full length TNF-gamma and extracellular domain of DR3 was cloned into pcDNA3 expression vector (Invitrogen, Carlsbad, Calif.) and transfected to MCA 38 cells, respectively. […] Mice then were randomized and tumors were measured twice weekly. The tumor size was assessed by measuring perpendicular diameters with a caliper and calculated by multiplying the measurements of diameters in two dimensions. […]

[6] = molecular target: T5, recombinant, untagged TNF-gamma-beta …; assay: BIAcore 3000, TNFR-Fc immobilised on CM5 chip, TNF-gamma-beta in flow
Procedure: TNFR-Fc were covalently immobilized to the BIAcore sensor chip (CM5 chip) via amine groups using N-ethyl-N′-(dimethylaminopropyl) carbodiimide/N-hydroxysuccinimide chemistry. […] The amount of bound protein was determined during washing of the flow cell with HBS buffer (10 mM HEPES, pH 7.4, 150 mM NaCl, 3.4 mM EDTA, 0.005% Surfactant P20). The flow cell surface was regenerated by displacing bound protein by washing with 20 microliters of 10 mM glycine-HCl, pH 2.3. For kinetic analysis, the on and off rates were determined using the kinetic evaluation program in BIAevaluation 3 software using a 1:1 binding model and the global analysis method.

Molecule: B1
binding result (non-tagged form of TR6): binds
binding result [1]: no binding
binding result [2]: no binding

Molecule: B2
binding result [3]: no binding
binding result [4]: no binding

Molecule: B3
tumor growth [5]: promotes tumor growth

Molecule: B4
binding result [6]: no binding (tested: 3-370 nM)
